Measurements reported in PMC10713829 (2023).

Target: HLA-A*01:01/hβ2m complex (empty, peptide-free or peptide-receptive) (human)
Experiment: FP

Binder: ILDTAGQEEY [NRAS_(55-64) wild-type (Q61) peptide]
- IC50: 278 nM
